Experimental findings from publication PMC11931385, “Structural and functional analysis of cancer-associated missense variants in the retinoblastoma protein pocket domain” (The Journal of Biological Chemistry, 2025) are described below.

Changes are numbered by the printed parent chain. Names and notes keep the numbering of the source. No end group written: not given here. TMR = tetramethyl rhodamine dye

Experiment in all cases: fluorescence polarisation; 37 °C, after the 25 °C reading ramped over 7 min to 37 °C and 2 min incubation; unlabeled Rb^P against 1.5 nM TMR-E2F1^TD or 7.5 nM TMR-E7^LxCxE; 25 mM Tris pH 8.0, 200 mM NaCl, 1 mM DTT, 0.1% Tween-20; apparent Kd
Conditions in all cases: both partners purified
(In general: In fluorescence polarisation assays a small probe gives low polarisation when free and higher when bound to something large.)

One assay deals with T1, Rb^P S474N (human, UniProt P06400 380-788, S474N).
T1 construct: also called variant 12
T1 sequence (looked up): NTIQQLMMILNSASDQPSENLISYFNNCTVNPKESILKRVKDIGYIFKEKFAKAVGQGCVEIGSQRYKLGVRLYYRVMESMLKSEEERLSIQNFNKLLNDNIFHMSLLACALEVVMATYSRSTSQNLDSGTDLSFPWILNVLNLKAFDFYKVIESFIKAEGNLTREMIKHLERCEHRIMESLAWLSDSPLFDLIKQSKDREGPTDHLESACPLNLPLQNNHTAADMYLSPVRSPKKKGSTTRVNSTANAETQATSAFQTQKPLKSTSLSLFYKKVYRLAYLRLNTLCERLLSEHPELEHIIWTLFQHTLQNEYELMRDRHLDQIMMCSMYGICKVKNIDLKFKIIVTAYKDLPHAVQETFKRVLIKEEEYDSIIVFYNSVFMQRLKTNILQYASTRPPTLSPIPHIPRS

Another assay addresses T2, Rb^P R621P (human, UniProt P06400 380-788, R621P).
T2 construct: also called variant 43
T2 sequence (looked up): T1 sequence (looked up) with N95S, R242P

The target of the next assay is T3, Rb^P Q504E (human, UniProt P06400 380-788, Q504E).
T3 construct: also called variant 19
T3 sequence (looked up): T1 sequence (looked up) with N95S, Q125E

Another assay addresses T4, Rb^P H699P (human, UniProt P06400 380-788, H699P).
T4 construct: also called variant 63
T4 sequence (looked up): T1 sequence (looked up) with N95S, H320P

Another assay concerns the target T5, Rb^P H585Y (human, UniProt P06400 380-788, H585Y).
T5 construct: also called variant 33
T5 sequence (looked up): T1 sequence (looked up) with N95S, H206Y

B1: TMR-E2F1^TD, peptide of the E2F1 transactivation domain (peptide)
peptide: {TMR}-GEGIRDLFDCDFGDLTPLD
notes: also called E2F^TD; source: synthetic peptide, bought: GenScript
Take B1: the Kd was determined as 26 nM in the assay with Rb^P S474N; 83 nM with Rb^P R621P; 33 nM in the assay with Rb^P Q504E; 68 nM with Rb^P H699P; 92 nM in the assay with Rb^P H585Y.

B2: TMR-E7^LxCxE, LxCxE peptide of the E7 oncoprotein from HPV (peptide)
peptide: DLYCYEQLN
modifications: also: TMR label, position not given here
notes: source: synthetic peptide, bought: GenScript
For B2, the Kd was 13 nM with Rb^P S474N; 32 nM with Rb^P R621P; 11 nM with Rb^P Q504E; 14 nM in the assay with Rb^P H699P; 18 nM in the assay with Rb^P H585Y.
